Paper doi:10.1101/2024.10.04.616749, “Structural basis for a nucleoporin exportin complex between RanBP2, SUMO1-RanGAP1, the E2 Ubc9, Crm1 and the Ran GTPase” (bioRxiv, 2024)
Values belong to the binder of their own block, whether it stands above or below them.

What was measured:
Details in all cases: both partners purified
Ran^Q69L(GTP) = Ran^Q69L(GTP) (human, UniProt P62826 1-216, Q69L); assay: SEC; analytical size exclusion chromatography of complexes I, II and III assembled from a RanBP2 variant, SUMO1-RanGAP1, Ubc9, Crm1 and Ran^Q69L(GTP); fractions on SDS-PAGE
Crm1 (full-length human) [1] = molecular target: T1, Crm1 (full-length human) (human, UniProt O14980 1-1071); assay: as above
T1 construct: Crm1 (exportin-1), human, full length; also called exportin Crm1; source: E. coli BL21(DE3) SoluBL21 with Codon Plus (RIL) plasmid, purified (Ni-NTA, Ulp1 cleavage, SEC, MonoQ); not shown: His6-Smt3, N-terminal, cleaved
T1 sequence (O14980 whole entry): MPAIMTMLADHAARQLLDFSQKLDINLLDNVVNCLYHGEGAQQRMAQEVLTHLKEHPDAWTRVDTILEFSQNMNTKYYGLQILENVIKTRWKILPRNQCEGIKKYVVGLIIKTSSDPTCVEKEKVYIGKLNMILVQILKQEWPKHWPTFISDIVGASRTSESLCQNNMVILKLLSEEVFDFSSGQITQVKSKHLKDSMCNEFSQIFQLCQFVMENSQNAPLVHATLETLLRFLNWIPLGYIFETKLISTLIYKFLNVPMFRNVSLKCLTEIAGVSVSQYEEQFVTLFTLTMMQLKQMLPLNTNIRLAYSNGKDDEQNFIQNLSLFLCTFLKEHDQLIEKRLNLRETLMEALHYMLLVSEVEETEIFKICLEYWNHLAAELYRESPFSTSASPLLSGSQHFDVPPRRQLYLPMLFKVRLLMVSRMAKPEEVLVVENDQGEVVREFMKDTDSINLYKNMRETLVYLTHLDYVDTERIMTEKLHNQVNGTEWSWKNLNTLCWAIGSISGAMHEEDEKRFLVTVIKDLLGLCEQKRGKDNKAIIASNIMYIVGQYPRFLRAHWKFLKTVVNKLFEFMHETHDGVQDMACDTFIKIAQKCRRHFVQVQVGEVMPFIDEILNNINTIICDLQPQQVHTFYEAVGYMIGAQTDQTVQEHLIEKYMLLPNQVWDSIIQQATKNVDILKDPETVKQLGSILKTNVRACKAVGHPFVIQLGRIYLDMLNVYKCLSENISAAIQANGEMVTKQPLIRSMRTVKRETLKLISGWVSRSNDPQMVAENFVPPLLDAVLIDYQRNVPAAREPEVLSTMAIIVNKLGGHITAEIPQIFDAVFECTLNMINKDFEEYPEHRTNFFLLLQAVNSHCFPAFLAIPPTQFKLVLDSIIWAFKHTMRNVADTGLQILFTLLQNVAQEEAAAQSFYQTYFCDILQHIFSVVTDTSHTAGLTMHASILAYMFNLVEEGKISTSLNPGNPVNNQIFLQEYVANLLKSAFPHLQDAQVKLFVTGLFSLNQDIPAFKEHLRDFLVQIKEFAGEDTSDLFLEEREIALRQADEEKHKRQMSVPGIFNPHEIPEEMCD

Crm1 (full-length human) [2] = molecular target: T1, Crm1 (full-length human); assay: cryo-EM structure; purified RanBP2^RBD4/SUMO1^Q94P-RanGAP1/Ubc9 incubated with excess Crm1 and Ran^Q69L(GTP), gel filtration in 20 mM HEPES pH 7.4, 110 mM potassium acetate, 2 mM magnesium acetate, 1 mM TCEP; lightly crosslinked with 250 uM BS3 for 30 min; 0.1% CHAPSO

- binding result (Ran^Q69L(GTP)): binds
- binding result (Crm1 (full-length human) [1]): binds
B1: RanBP2^2300–2910 (RanBP2^RBD3) (domain or fragment, human, UniProt P49792 2300-2910, looked up)
chain: TQEEERDGQYFEPVVPLPDLVEVSSGEENEQVVFSHRAKLYRYDKDVGQWKERGIGDIKILQNYDNKQVRIVMRRDQVLKLCANHRITPDMTLQNMKGTERVWLWTACDFADGERKVEHLAVRFKLQDVADSFKKIFDEAKTAQEKDSLITPHVSRSSTPRESPCGKIAVAVLEETTRERTDVIQGDDVADATSEVEVSSTSETTPKAVVSPPKFVFGSESVKSIFSSEKSKPFAFGNSSATGSLFGFSFNAPLKSNNSETSSVAQSGSESKVEPKKCELSKNSDIEQSSDSKVKNLFASFPTEESSINYTFKTPEKAKEKKKPEDSPSDDDVLIVYELTPTAEQKALATKLKLPPTFFCYKNRPDYVSEEEEDDEDFETAVKKLNGKLYLDGSEKCRPLEENTADNEKECIIVWEKKPTVEEKAKADTLKLPPTFFCGVCSDTDEDNGNGEDFQSELQKVQEAQKSQTEEITSTTDSVYTGGTEVMVPSFCKSEEPDSITKSISSPSVSSETMDKPVDLSTRKEIDTDSTSQGESKIVSFGFGSSTGLSFADLASSNSGDFAFGSKDKNFQWANTGAAVFGTQSVGTQSAGKVGEDEDGSDEEVVHNEDI
notes: RanBP2 (Nup358), human, residues 2300-2910: contains only RBD3 of the two RBDs; pET28b with a thrombin-cleavable His6 tag; no cleavage is described for the analytical gel filtration runs; source: E. coli BL21(DE3) Codon Plus (RIL), purified (Ni-NTA, SEC)

- binding result (Ran^Q69L(GTP)): binds
- binding result (Crm1 (full-length human) [1]): binds
B2: RanBP2^2300–3060 (RanBP2^RBD3–4) (domain or fragment, human, UniProt P49792 2300-3060, looked up)
chain: TQEEERDGQYFEPVVPLPDLVEVSSGEENEQVVFSHRAKLYRYDKDVGQWKERGIGDIKILQNYDNKQVRIVMRRDQVLKLCANHRITPDMTLQNMKGTERVWLWTACDFADGERKVEHLAVRFKLQDVADSFKKIFDEAKTAQEKDSLITPHVSRSSTPRESPCGKIAVAVLEETTRERTDVIQGDDVADATSEVEVSSTSETTPKAVVSPPKFVFGSESVKSIFSSEKSKPFAFGNSSATGSLFGFSFNAPLKSNNSETSSVAQSGSESKVEPKKCELSKNSDIEQSSDSKVKNLFASFPTEESSINYTFKTPEKAKEKKKPEDSPSDDDVLIVYELTPTAEQKALATKLKLPPTFFCYKNRPDYVSEEEEDDEDFETAVKKLNGKLYLDGSEKCRPLEENTADNEKECIIVWEKKPTVEEKAKADTLKLPPTFFCGVCSDTDEDNGNGEDFQSELQKVQEAQKSQTEEITSTTDSVYTGGTEVMVPSFCKSEEPDSITKSISSPSVSSETMDKPVDLSTRKEIDTDSTSQGESKIVSFGFGSSTGLSFADLASSNSGDFAFGSKDKNFQWANTGAAVFGTQSVGTQSAGKVGEDEDGSDEEVVHNEDIHFEPIVSLPEVEVKSGEEDEEILFKERAKLYRWDRDVSQWKERGVGDIKILWHTMKNYYRILMRRDQVFKVCANHVITKTMELKPLNVSNNALVWTASDYADGEAKVEQLAVRFKTKEVADCFKKTFEECQQNLMKLQKGHVSLAAELSK
notes: RanBP2 (Nup358), human, residues 2300-3060: RBD3, FG1, IR1-M-IR2, FG2 and RBD4; pET28b with a thrombin-cleavable His6 tag; no cleavage is described for the protein of the analytical gel filtration runs (it was cleaved for the SUMO conjugation assays); source: E. coli BL21(DE3) Codon Plus (RIL), purified (Ni-NTA, SEC)

- binding result (Ran^Q69L(GTP)): binds
- binding result (Crm1 (full-length human) [2]): binds
B3: RanBP2^2446–3060 (RanBP2^RBD4) (domain or fragment, human, UniProt P49792 2446-3060, looked up)
chain: DSLITPHVSRSSTPRESPCGKIAVAVLEETTRERTDVIQGDDVADATSEVEVSSTSETTPKAVVSPPKFVFGSESVKSIFSSEKSKPFAFGNSSATGSLFGFSFNAPLKSNNSETSSVAQSGSESKVEPKKCELSKNSDIEQSSDSKVKNLFASFPTEESSINYTFKTPEKAKEKKKPEDSPSDDDVLIVYELTPTAEQKALATKLKLPPTFFCYKNRPDYVSEEEEDDEDFETAVKKLNGKLYLDGSEKCRPLEENTADNEKECIIVWEKKPTVEEKAKADTLKLPPTFFCGVCSDTDEDNGNGEDFQSELQKVQEAQKSQTEEITSTTDSVYTGGTEVMVPSFCKSEEPDSITKSISSPSVSSETMDKPVDLSTRKEIDTDSTSQGESKIVSFGFGSSTGLSFADLASSNSGDFAFGSKDKNFQWANTGAAVFGTQSVGTQSAGKVGEDEDGSDEEVVHNEDIHFEPIVSLPEVEVKSGEEDEEILFKERAKLYRWDRDVSQWKERGVGDIKILWHTMKNYYRILMRRDQVFKVCANHVITKTMELKPLNVSNNALVWTASDYADGEAKVEQLAVRFKTKEVADCFKKTFEECQQNLMKLQKGHVSLAAELSK
notes: RanBP2 (Nup358), human, residues 2446-3060: FG1, IR1-M-IR2, FG2 and RBD4; pET28b with a thrombin-cleavable His6 tag; no cleavage is described for the protein used in cryo-EM reconstitutions and analytical gel filtration; also called RanBP2 FG1-IR1-M-IR2-FG2-RBD4 fragment; hRanBP2^RBD4; source: E. coli BL21(DE3) Codon Plus (RIL), purified (Ni-NTA, SEC)
